Our source for the stoichiometry N values is paper PMC6104738.

The target of the assay is EBOV GP [change] (residues 1-636; strain Makona) (Zaire ebolavirus (EBOV), strain Makona). As to the kind of experiment: negative-stain electron microscopy; purified EBOV GP ΔTM alone.

Substance “EBOV GP [change] (residues 1-636; strain Makona) (domain or fragment)” returned a stoichiometry N of 3.
